Here are results for one molecule from patent US20110224143A1 (ROCKERFELLER UNIVERSITY, published 2011).

In this assay the target is T1, sNUCB1 (N-terminally truncated human NUCB1, deletion of residues 1-31) (Homo sapiens, UniProt Q02818 32-461).
T1 construct: Expressed in E. coli; also called Calnuc; Ca2+ free NUCB1
T1 sequence: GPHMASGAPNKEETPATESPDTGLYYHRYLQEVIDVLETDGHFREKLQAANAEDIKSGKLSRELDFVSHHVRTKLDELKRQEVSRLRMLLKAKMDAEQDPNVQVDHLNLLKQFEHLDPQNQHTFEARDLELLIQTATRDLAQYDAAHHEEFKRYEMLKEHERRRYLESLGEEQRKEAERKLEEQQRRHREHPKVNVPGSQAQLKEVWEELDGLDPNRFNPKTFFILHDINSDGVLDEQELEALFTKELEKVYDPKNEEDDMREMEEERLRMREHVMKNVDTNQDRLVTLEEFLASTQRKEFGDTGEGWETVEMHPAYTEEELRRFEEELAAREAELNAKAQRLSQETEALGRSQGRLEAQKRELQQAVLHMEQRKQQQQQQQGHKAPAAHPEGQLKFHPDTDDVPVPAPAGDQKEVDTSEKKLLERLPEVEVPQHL
Kind of assay: inferred from TEM of Amylin fibrillization with Ca2+ free NUCB1 added 1:1 at t=0, 2, 7 and 15 min. An excerpt: Aggregation of Amylin involves an initial lag phase, which is associated with the formation of a nucleus. This nucleation phase is followed by the growth phase where monomers/oligomers add on to the nucleus converting the protofibrillar species into mature fibrils (Merlini and Bellotti, N. Engl. J. Med. 349, 583-596, 2003). Inhibitors of amyloidogenesis, known to date, either prolong the lag phase or slow down the growth phase. […] In the second reaction, Amylin oligomerization was allowed to proceed for 2 min into the reaction after which equimolar amount of NUCB1 was added. […] In the third reaction, NUCB1 was added after the nucleation phase of Amylin aggregation was complete (t=7 min). […] In the fourth experiment, the fibrillization reaction was allowed to proceed to the growth phase and NUCB1 was added during the elongation phase (t=1 5 min). […] This summarizes and supports the observation that Ca2+ free NUCB1 can inhibit the aggregation of Amylin at any stage during the fibrillization reaction.

Positions of bridges follow the written chain, without caps; N, C: chain ends. No end group written: not given here.

B1: Wild type human IAPP (Amylin) (peptide, UniProt P10997 34-70, looked up)
peptide: KCNTATCATQRLANFLVHSSNNFGAILSSTNVGSNTY-NH2
modifications: disulfide 2-7 (inferred)
notes: mature; Present in the assays as monomers, oligomers, protofibrils or mature fibrils, depending on the time of addition; also called hIAPP; Amylin peptide
As for B1, the binding result is on record as “binds”.
